Here are results for four molecules from publication PMC2735845 (Journal of molecular biology, 2009).

In assay [1] the target is T1, E. coli single-stranded DNA-binding protein (SSB), wild type (E. coli, UniProt P0AGE0 1-178). Description: cell-based or functional assay.
Assay [2] deals with T1, E. coli single-stranded DNA-binding …. Description: ammonium sulfate co-precipitation.

B1: E. coli RecQ (wild type, full-length, hexahistidine-tagged) (enzyme)
chain: not shown
Regarding B1, the “Fold stimulation of RecQ helicase activity by SSB” value in assay [1] worked out at 9.7 fold.

B2: E. coli RecQ S421A (enzyme)
chain: not shown
Regarding B2, in assay [2], the “SSB binding in solution relative to wild type” value was roughly 40%.

B3: E. coli RecQ Q428A (enzyme)
chain: not shown
B3: the “SSB binding in solution relative to wild type” value in assay [2] was roughly 3%.

B4: E. coli RecQ R448A (enzyme)
chain: not shown
As to B4, the “co-precipitation with SSB relative to wild-type RecQ” value in assay [2] is roughly 80%.
